# Measured values as given in paper PMC7809406, “Structure of a full-length bacterial polysaccharide co-polymerase” (Nature Communications, 2021).
# B1: Full-length WzzB polysaccharide co-polymerase of E. coli (natural protein, E. coli K12, UniProt P76372 1-326, looked up)
# chain: MRVENNNVSGQNHDPEQIDLIDLLVQLWRGKMTIIISVIVAIALAIGYLAVAKEKWTSTAIITQPDVGQIAGYNNAMNVIYGQAAPKVSDLQETLIGRFSSAFSALAETLDNQEEREKLTIEPSVKNQQLPLTVSYVGQTAEGAQMKLAQYIQQVDDKVNQELEKDLKDNIALGRKNLQDSLRTQEVVAQEQKDLRIRQIQEALQYANQAQVTKPQIQQTGEDITQDTLFLLGSEALESMIKHEATRPLVFSPNYYQTRQNLLDIESLKVDDLDIHAYRYVMKPMLPIRRDSPKKAITLILAVLLGGMVGAGIVLGRNALRNYNAK
# notes: WzzB, polysaccharide co-polymerase (O-antigen chain length regulator), amplified from E. coli K12 genomic DNA; full-length gene; Integral membrane protein in a DDM micelle; The 8×His tag is non-cleavable (modified pWaldo vector); About 25% of the particles are dimers of the octamer; also called native protein; polysaccharide co-polymerase (PCP) Wzz; source: E. coli C41, membranes solubilized with …
# B2: N-terminal truncated WzzB, missing residues 1-15 (truncated E16M variant) (domain or fragment, E. coli K12, UniProt P76372 16-326, looked up)
# chain: MQIDLIDLLVQLWRGKMTIIISVIVAIALAIGYLAVAKEKWTSTAIITQPDVGQIAGYNNAMNVIYGQAAPKVSDLQETLIGRFSSAFSALAETLDNQEEREKLTIEPSVKNQQLPLTVSYVGQTAEGAQMKLAQYIQQVDDKVNQELEKDLKDNIALGRKNLQDSLRTQEVVAQEQKDLRIRQIQEALQYANQAQVTKPQIQQTGEDITQDTLFLLGSEALESMIKHEATRPLVFSPNYYQTRQNLLDIESLKVDDLDIHAYRYVMKPMLPIRRDSPKKAITLILAVLLGGMVGAGIVLGRNALRNYNAK
# notes: WzzB of E. coli K12 missing the first 15 amino acids; a start codon was introduced at position 16 (E16M); Same vector and non-cleavable C-terminal 8×His tag as m1; Virtually all particles are dimers of octamers; also called N-terminally truncated WzzB; N-terminally truncated variant; source: E. coli C41, membranes solubilized with 1% DDM, purified (Ni-NTA, Superdex 200 SEC); not shown: 8×His, …
# Target: the molecule itself
# Experiment: cryo-EM structure; single-particle analysis of SEC population 1 in DDM (25 mM TRIS pH 8.0, 100 mM NaCl, 3% glycerol, 0.5 mM TCEP, 0.02% DDM), 3.0 mg/mL; protomers to octamer; maps with C1 and C8 symmetry
row,Protein,stoichiometry N
1,B1,8
2,B2,8
